Experiments:
Type in all cases: biochemical
PKBβ = target: T1, PKBβ (Homo sapiens, UniProt P31751); assay: Millipore radiometric kinase activity assay, PKBβ (h); conditions: for PKBβ Kinase Activity: peptide inhibitor 300 μM, SD of 2 samples
T1 construct: purchased Millipore (radiometric assay service)
Protocol: (§1) A commercial radiometric assay service (Millipore, Billerica, Mass.) was used to test the specificity and potency of peptides containing a coupled transduction domain and therapeutic domain, hereinafter “complete peptides”). In these assays, if the kinase is not inhibited by an inhibitor peptide, a positively charged substrate is phosphorylated with a radiolabeled phosphate group from an ATP.
(§2) In a final reaction volume of 25 μL, PKAβ (h) (5-10 mU) is incubated with 8 mM MOPS pH 7.0, 0.2 mM EDTA, 30 μM […] [SEQ ID NO: 60], 10 mM MgAcetate and ['y-^33P-ATP] (specific activity approx. 500 cpm/pmol, concentration as required). The reaction is initiated by the addition of the MgATP mix. After incubation for 40 minutes at room temperature, the reaction is stopped by the addition of 5 μL it of a 3% phosphoric acid solution. 10 μL of the reaction is then spotted onto a P30 filtermat and washed three times for 5 minutes in 75 mM phosphoric acid and once in methanol prior to drying and scintillation counting.
(§3) IC50 values for inhibitor peptides were determined using Millipore's IC50Profiler Express service. The IC50 value was estimated from a 10-point curve of one-half log dilutions. For peptides tested for specificity, the concentration of the peptides that inhibited approximately 95% of MK2 activity was chosen to profile against a battery of kinases related to MK2, cell viability, or human disease from MilliporeKinaseProfiler service. In both assays, compounds were supplied in dimethylsulfoxide (DMSO). Every kinase activity measurement was conducted in duplicate.
(§4) Therapeutic inhibitor peptides were assayed for activity against human kinases related to MK2, cell viability, or human disease. The assays were performed using concentrations of therapeutic inhibitor peptides that yielded 2% to 8% of normal MK2 activity. Error is reported as the standard deviation between 2 samples, and “c” is rat AMPK whereas all other kinases used are human kinases.
(§5) Additional therapeutic inhibitor peptide variants were assayed for activity against several human kinases representative of several families of kinases. These kinases included: MK2; MK3; CaMKI (calcium/calmodulin-dependent protein kinase); PRAK (p38 regulated/activated protein kinase, also known as mitogen-activated protein kinase activated protein kinase 5 (MAPKAPK5)); SAPK2a (p38α); IRAK4 (IL-1 receptor (IL-1R)-associated kinase); MLCK (myosin light chain kinase); PKBβ (protein kinase B); PCKδ (protein kinase C); and ROCK-I (Rho-associated serine/threonine kinase).

PKCδ = target: T2, PKCδ (Homo sapiens, UniProt Q05655); assay: Millipore radiometric kinase activity assay, PKCδ (h); conditions: for PKCδ Kinase Activity: peptide inhibitor 300 μM, SD of 2 samples
T2 construct: purchased Millipore (radiometric assay service)
T2 sequence (Q05655 whole entry): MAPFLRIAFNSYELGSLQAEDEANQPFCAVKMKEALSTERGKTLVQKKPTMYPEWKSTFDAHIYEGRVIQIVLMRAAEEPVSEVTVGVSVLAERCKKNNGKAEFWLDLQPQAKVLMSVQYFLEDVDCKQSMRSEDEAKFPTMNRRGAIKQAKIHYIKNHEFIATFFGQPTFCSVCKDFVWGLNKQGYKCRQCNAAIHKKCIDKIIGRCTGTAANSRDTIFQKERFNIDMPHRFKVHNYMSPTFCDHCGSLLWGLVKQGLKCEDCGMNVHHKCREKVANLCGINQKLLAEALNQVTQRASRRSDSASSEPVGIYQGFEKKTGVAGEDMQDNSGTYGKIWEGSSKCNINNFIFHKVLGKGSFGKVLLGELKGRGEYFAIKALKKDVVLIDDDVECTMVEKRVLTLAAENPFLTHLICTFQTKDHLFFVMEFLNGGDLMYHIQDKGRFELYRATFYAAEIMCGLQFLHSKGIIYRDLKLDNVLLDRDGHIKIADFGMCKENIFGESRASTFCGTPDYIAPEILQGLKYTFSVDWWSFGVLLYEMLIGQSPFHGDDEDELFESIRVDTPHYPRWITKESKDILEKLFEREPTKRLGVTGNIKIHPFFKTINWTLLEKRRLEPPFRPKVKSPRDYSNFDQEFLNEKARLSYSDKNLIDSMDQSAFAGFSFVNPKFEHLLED
Protocol: as §1
In a final reaction volume of 25 μL, PKCδ (h) (5-10 mU) is incubated with 20 mM HEPES pH 7.4, 0.03% Triton X-100, 0.1 mg/mL phosphatidylserine, 10 μg/mL diacylglycerol, 50 μM […] [SEQ ID NO: 61], 10 mM MgAcetate and [γ-^33P-ATP] (specific activity approx. 500 cpm/pmol, concentration as required). The reaction is initiated by the addition of the MgATP mix. After incubation for 40 minutes at room temperature, the reaction is stopped by the addition of 5 μL of a 3% phosphoric acid solution. 10 μL of the reaction is then spotted onto a P30 filtermat and washed three times for 5 minutes in 75 mM phosphoric acid and once in methanol prior to drying and scintillation counting.
as §3, §4, §5

SAPK2a (p38α) = target: T3, SAPK2a (p38α) (Homo sapiens, UniProt Q16539); assay: Millipore radiometric kinase activity assay, SAPK2a (h); conditions: for SAPK2a (p38α) Kinase Activity: peptide inhibitor 300 μM, SD of 2 samples
T3 construct: purchased Millipore (radiometric assay service)
T3 sequence (Q16539 whole entry): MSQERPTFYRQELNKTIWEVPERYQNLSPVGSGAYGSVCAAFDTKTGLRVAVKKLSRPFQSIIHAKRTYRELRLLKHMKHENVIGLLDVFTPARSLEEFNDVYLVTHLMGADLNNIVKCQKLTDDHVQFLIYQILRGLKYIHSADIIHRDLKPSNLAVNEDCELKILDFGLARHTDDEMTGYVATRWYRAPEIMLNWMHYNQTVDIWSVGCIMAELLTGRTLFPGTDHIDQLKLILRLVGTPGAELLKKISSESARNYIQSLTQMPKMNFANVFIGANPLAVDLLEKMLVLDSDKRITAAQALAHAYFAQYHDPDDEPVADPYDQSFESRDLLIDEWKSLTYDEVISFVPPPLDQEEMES
Protocol: as §1
(§6) In a final reaction volume of 25 μL, SAPK2a (h) (5-10 mU) is incubated with 25 mM Tris pH 7.5, 0.02 mM EGTA, 0.33 mg/mL myelin basic protein, 10 mM MgAcetate and [γ-^33P-ATP] (specific activity approx. 500 cpm/pmol, concentration as required). The reaction is initiated by the addition of the MgATP mix. After incubation for 40 minutes at room temperature, the reaction is stopped by the addition of 5 μL of a 3% phosphoric acid solution. 10 μL of the reaction is then spotted onto a P30 filtermat and washed three times for 5 minutes in 75 mM phosphoric acid and once in methanol prior to drying and scintillation counting.
as §3, §4, §5

CaMKI = target: T4, CaMKI (Homo sapiens, UniProt Q14012); assay: Millipore radiometric kinase activity assay, CaMKI (h); conditions: for CaMK1 Kinase Activity: peptide inhibitor 300 μM, SD of 2 samples
T4 construct: purchased Millipore (assay service)
Protocol: as §1
as §2, with “μL, CaMKI” for “μL, PKAβ”, “EDTA, 0.5 mM CaCl2, 16 μg/mL calmodulin, 250” for “EDTA, 30”, “NO: 52],” for “NO: 60],”, “and [γ-^33P-ATP]” for “and ['y-^33P-ATP]”, “μL” for “μL it”
as §3, §4, §5

IRAK4 = target: T5, IRAK4 (Homo sapiens, UniProt Q9NWZ3); assay: Millipore radiometric kinase activity assay, IRAK4 (h)
T5 construct: purchased Millipore (assay service)
T5 sequence (Q9NWZ3 1-460): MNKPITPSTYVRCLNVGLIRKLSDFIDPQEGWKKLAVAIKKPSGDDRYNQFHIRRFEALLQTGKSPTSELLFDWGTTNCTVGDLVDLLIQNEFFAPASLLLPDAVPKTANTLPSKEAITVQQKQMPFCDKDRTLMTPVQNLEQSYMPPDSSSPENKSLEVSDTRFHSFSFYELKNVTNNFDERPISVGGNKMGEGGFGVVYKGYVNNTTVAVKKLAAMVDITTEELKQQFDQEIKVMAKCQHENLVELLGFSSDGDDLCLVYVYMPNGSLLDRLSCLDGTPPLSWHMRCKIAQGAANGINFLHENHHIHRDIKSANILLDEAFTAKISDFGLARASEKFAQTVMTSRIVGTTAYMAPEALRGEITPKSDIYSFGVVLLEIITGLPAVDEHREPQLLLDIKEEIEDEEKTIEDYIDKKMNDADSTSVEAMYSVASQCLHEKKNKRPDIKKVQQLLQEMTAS
Protocol: as §1
as §6, with “μL, IRAK4” for “μL, SAPK2a”, “with 8” for “with 25”, “mM MOPS” for “mM Tris”, “pH 7.0, 0.2” for “pH 7.5, 0.02”, “mM EDTA,” for “mM EGTA,”, “10 μl” for “10 μL”
as §3, §4, §5

[1] = peptide 100 μM, listed as KAFAKLAARLYRLARQLGVAA
[2] = peptide 30 μM, listed as WLRRIKAWLRRI-

T1 sequence (P31751 whole entry): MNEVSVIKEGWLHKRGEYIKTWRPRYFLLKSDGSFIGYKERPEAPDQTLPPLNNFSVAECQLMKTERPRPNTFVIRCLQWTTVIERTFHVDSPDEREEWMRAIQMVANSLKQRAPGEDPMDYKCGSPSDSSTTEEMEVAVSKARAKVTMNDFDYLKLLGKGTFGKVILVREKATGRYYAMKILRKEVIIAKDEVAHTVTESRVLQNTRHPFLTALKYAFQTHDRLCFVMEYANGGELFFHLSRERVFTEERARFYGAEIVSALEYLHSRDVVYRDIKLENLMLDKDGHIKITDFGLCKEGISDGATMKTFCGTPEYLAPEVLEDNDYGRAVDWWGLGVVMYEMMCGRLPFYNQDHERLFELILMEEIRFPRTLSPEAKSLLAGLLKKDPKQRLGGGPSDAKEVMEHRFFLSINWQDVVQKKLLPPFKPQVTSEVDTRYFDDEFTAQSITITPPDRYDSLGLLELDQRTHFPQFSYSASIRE

FAKLAARLYRKALARQLGVAA
PKBβ Kinase Activity (%) (+SD %) (PKBβ; peptide 100 μM): 16(5) %
PKCδ Kinase Activity (%) (+SD %) (PKCδ; peptide 100 μM): 40(2) %
inhibition of SAPK2a activity (in words) (SAPK2a (p38α); Table 5, 100 μM): inhibited activity of SAPK2a
SAPK2a Kinase Activity (%) (+SD %) (SAPK2a (p38α); peptide 100 μM): 30(6) %
CaMKI Kinase Activity (%) (+SD %) (CaMKI; peptide 100 μM): 0(2) %
IRAK4 Kinase Activity (%) (+SD %) (IRAK4; peptide 100 μM): 13(4) %

KAFAKLAARLYRKALARQLGVAA
PKBβ Kinase Activity (%) (+SD %) (PKBβ; peptide 100 μM): 28 (4) %
PKBβ Kinase Activity (%) (+SD %) (PKBβ; [1]): 28(4) %
PKCδ Kinase Activity (%) (+SD %) (PKCδ; peptide 100 μM): 24 (3) %
PKCδ Kinase Activity (%) (+SD %) (PKCδ; [1]): 24(3) %
SAPK2a Kinase Activity (%) (+SD %) (SAPK2a (p38α); peptide 100 μM): 59 (8) %
SAPK2a Kinase Activity (%) (+SD %) (SAPK2a (p38α); [1]): 59(8) %
CaMKI Kinase Activity (%) (+SD %) (CaMKI; peptide 100 μM): 0 (2) %
CaMKI Kinase Activity (%) (+SD %) (CaMKI; [1]): 0(2) %
IRAK4 Kinase Activity (%) (+SD %) (IRAK4; peptide 100 μM): 16 (2) %
IRAK4 Kinase Activity (%) (+SD %) (IRAK4; [1]): 16(2) %

WLRRIKAWLRRIKALNRQLGVAA
PKBβ Kinase Activity (%) (+SD %) (PKBβ; peptide 30 μM): 18(2) %
PKBβ Kinase Activity (%) (+SD %) (PKBβ; [2]): 18 (2) %
PKBβ Kinase Activity (%) (+SD %) (PKBβ; peptide 100 μM): 16 (5) %
PKCδ Kinase Activity (%) (+SD %) (PKCδ; peptide 30 μM): 11(0) %
PKCδ Kinase Activity (%) (+SD %) (PKCδ; [2]): 11 (0) %
PKCδ Kinase Activity (%) (+SD %) (PKCδ; peptide 100 μM): 40 (2) %
SAPK2a Kinase Activity (%) (+SD %) (SAPK2a (p38α); peptide 30 μM): 61(7) %
SAPK2a Kinase Activity (%) (+SD %) (SAPK2a (p38α); [2]): 61 (7) %
SAPK2a Kinase Activity (%) (+SD %) (SAPK2a (p38α); peptide 100 μM): 30 (6) %
CaMKI Kinase Activity (%) (+SD %) (CaMKI; peptide 30 μM): 9(1) %
CaMKI Kinase Activity (%) (+SD %) (CaMKI; [2]): 9 (1) %
CaMKI Kinase Activity (%) (+SD %) (CaMKI; peptide 100 μM): 0 (2) %
IRAK4 Kinase Activity (%) (+SD %) (IRAK4; peptide 30 μM): 12(1) %
IRAK4 Kinase Activity (%) (+SD %) (IRAK4; [2]): 12 (1) %
IRAK4 Kinase Activity (%) (+SD %) (IRAK4; peptide 100 μM): 13 (4) %

YARAAARQARAKALARQLGVAA
PKBβ Kinase Activity (PKBβ): 17(2) %
PKCδ Kinase Activity (PKCδ): 101(3) %
SAPK2a (p38α) Kinase Activity (SAPK2a (p38α)): 66(3) %
CaMK1 Kinase Activity (CaMKI): 2(0) %

YARAAARQARAKALNRQLGVAA
PKBβ Kinase Activity (PKBβ): 96(1) %
PKCδ Kinase Activity (PKCδ): 105(2) %
SAPK2a (p38α) Kinase Activity (SAPK2a (p38α)): 100(6) %
CaMK1 Kinase Activity (CaMKI): 8(1) %
IRAK4 Kinase Activity (IRAK4; peptide inhibitor 300 μM, SD of 2 samples): 68(3) %
